These results are taken from PMC4812251.

Substrate in this data set: CC(=O)O
Put plainly: purified protein. As to conditions: ATP 10 mM, CoA 0.1 mM, MgCl2 5 mM, acetate salt 2.5-80 mM.

B1: DtACS (Dunaliella tertiolecta) (protein)
chain: MKCSALPAGSRPQALATHTSMQAPLLLRSLAPSVPKLAQPAGTPLVHSSLPCYRKSRSCSHLASASSTAPGSTTMKPQPLLTNFIQSKEEYDALYARSIADPASFWGDVAEQFHWEKKWDPDHHSFNFDVTKGPINVEWFKGGFTNICYNALDRHVMTGHGNQHCMLFEGNEPGSDGAMTYTQVLDEVCRLANWMKAQGIGKGDCVAIYMPMVMQLPIAMLACARIGAVHSVVFGGFSADALAGRMEDCKARVLLTCNGGMRATKKIELKQIADQAIEMCASRGHTVDSVLVFANHKDGVAGAEAAGTPFTQGRDAWWQPTLAEFPALCDVAWVPAEHPLFLLYTSGSTGKPKGVLHTTGGYMVYAATTTKHAFQLQPGDVFWCTADCGWITGHSYLAYGPLLNRAVSVVFEGVPTHPTPARSWEIIDKYQVKQFYTAPTALRSLMRSGDEWLSSTSRQSLQVLGTVGEPINPEAWHWFHDLVGNGRCPVVDTWWQTETGGHMILPLPRAWPAKPGSATLPFFGVEPVILDDKGVELQGECEGLLMMRRPWPSTLRSVYGDHKRYEENYFGPYPGYYFTGDGARRDKDGYYWITGRVDDVINVSGHRIGTAEVESAIAAHHDCAEAAVAGYEHPVKGQGIYAFVVLKEGVVPNDQLKKEMWTNVRTTIGAFAAPDVIHWAPGLPKTRSGKIMRRVLRKIAGGQENELGDTSTLADPSIVRQLIETRN
Consider B1, for which the Km reads like this: (Tris-Cl pH 8.0, 37 °C (general assay)) 3.59 mM; (Tris-Cl pH 8.0, 37 °C (general assay; mix lists 10 mM potassium acetate as substrate)) 4.66 mM.

One may read the Km as the concentration of substrate that gives half-maximal velocity.
